Test results as given in PMC7904846 (2021).

B1: CD105 (natural protein)
chain: ETVHCDLQPVGPERGEVTYTTSQVSKGCVAQAPNAILEVHVLFLEFPTGPSQLELTLQASKQNGTWPREVLLVLSVNSSVFLHLQALGIPLHLAYNSSLVTFQEPPGVNTTELPSFPKTQILEWAAERGPITSAAELNDPQSILLRLGQAQGSLSFCMLEASQDMGRTLEWRPRTPALVRGCHLEGVAGHKEAHILRVLPGHSAGPRTVTVKVELSCAPGDLDAVLILQGPPYVSWLIDANHNMQIWTTGEYSFKIFPEKNIRGFKLPDTPQGLLGEARMLNASIVASFVELPLASIVSLHASSCGGRLQTSPAPIQTTPPKDTCSPELLMSLIQTKCADDAMTLVLKKELVAHLKCTITGLTFWDPSCEAEDRGDKFVLRSAYSSCGMQVSASMISNEAVVNILSSSSPQRKKVHCLNMDSLSFQLGLYLSPHFLQASNTIEPGQQSFVQVRVSPSVSEFLLQLDSCHLDLGPEGGTVELIQGRAAKGNCVSLLSPSPEGDPRFSFLLHFYTVPIPKTGTLSCTVALRPKTGSQDQEVHRTVFMRLNIISPDLSGCTSKGLVLPAVLGITFGAFLIGALLTAALWYIYSHTRSPSKREPVVAVAAPASSESSSTNHSIGSTQSTPCSTSSMA

How the values were obtained:
Experiment in all cases: SPR
C168 = target: C168
C59 = target: C59
C68 = target: C68
C86 = target: C86
C50 = target: C50
CD105 [1] = target: B1
CD105 [2] = target: B1

| Binder | Kd (C168) [nM] | koff (C168) [s⁻¹] | Kd (C59) [nM] | koff (C59) [s⁻¹] | Kd (C68) [nM] | koff (C68) [s⁻¹] | Kd (C86) [nM] | koff (C86) [s⁻¹] | Kd (C50) [nM] | koff (C50) [s⁻¹] | Kd (CD105 [1]) [nM] | koff (CD105 [2]) [s⁻¹] |
| --- | --- | --- | --- | --- | --- | --- | --- | --- | --- | --- | --- | --- |
| B1 | 89 | 0.00391 | 65.9 | 0.00255 | 28.9 | 0.00171 | 42.6 | 0.00144 | 16.2 | 0.00132 | – | – |
| Nb C184 (VHH) VHH: QVQLQESGGGSVQAGGSLRLSCVASGYTVSRGYMGWFRQAPGKEREAVAAIRTGSGSTYYADSVKGRFTISQDNAKNTVYLQMNSLKHEDTGMYYCAASLWYGGNWQSWGSYNYWGQGTQVTVSS | – | – | – | – | – | – | – | – | – | – | 44.7 | 0.00188 |
